Data as given in the supplement of paper PMC10567573.

B1: SETD8 (parent)
chain: FVVEYHGDLIEITDAKKREALYAQ
B2: GLTSCR2 (parent)
chain: LARRRRRRQARREAEADKPRRLGR

Variants of: B1
Experiment: protein stability index of a GFP-peptide fusion (GPS, HEK-293T) (PSI 1-6); higher = more stable
Conditions: c terminus: a fixed tail appended
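Also: lentivirally expressed fusions sorted by FACS into six bins by GFP to DsRed ratio, PSI derived from sequencing read proportions per bin multiplied by bin number.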

Protein stability index, by site and new letter:
D14: S 1.88 | V 1.45 | K 2.58 | Q 2.13 | E 2.75 | G 3.5 | A 2.08 | T 1.21 | L 1.16 | R 1.72 | P 1.37 | N 1.65 | C 1.46 | F 2.45 | H 1.52 | W 1.31 | M 1.95 | I 2.69
I12: H 2.48 | M 1.72 | P 2.36 | N 2.54 | E 2.74 | Q 2.77 | C 2.1 | Y 1.56 | F 2.21 | S 2.09 | K 2.75 | R 2.48 | L 2.55 | A 1.98 | D 2.22 | G 1.64 | W 2.45 | T 2.02 | V 2.18
T13: C 2.42 | Q 3.21 | I 2.24 | S 2.46 | R 2.07 | N 1.96 | E 1.76 | F 3.25 | A 1.73 | K 2.79 | V 3.05 | D 1.97 | Y 1.78 | H 2.02 | P 2.65 | M 1.5 | L 2.63 | G 1.41
I10: A 2.08 | F 2.1 | L 2.17 | Y 1.61 | R 1.82 | D 2.58 | P 2.25 | M 1.67 | Q 2.5 | T 2.01 | E 2.21 | S 2.21 | W 1.21 | V 1.56 | C 1.99 | K 2.28 | N 1.88 | H 1.64 | G 2.11
A15: K 2.33 | N 1.43 | F 2.25 | I 2.04 | C 1.67 | D 1.82 | Y 1.13 | R 3.06 | L 1.93 | M 2.69 | E 2.08 | W 2.37 | G 2.23 | P 2.73 | Q 2.22 | S 1.88 | T 1.51 | V 2.3 | H 1.87
E19: K 1.47 | A 2.41 | N 1.27 | G 1.75 | V 1.51 | C 2.87 | M 2.3 | Q 1.7 | W 1.96 | S 1.81 | F 2.97 | P 1.84 | R 2.84 | Y 1.81 | L 3.57 | H 1.64 | T 2.42 | D 1.51
A23: N 1.69 | S 1.92 | Q 1.85 | L 2.36 | D 1.79 | E 1.84 | R 2.3 | P 1.89 | H 2.1 | W 2.12 | T 2.21 | Y 1.3 | K 2.17 | V 1.65 | G 1.13 | I 1.6 | C 1.29 | F 2.57 | M 1.83
Q24: G 1.37 | Y 1.32 | M 1.75 | R 2.89 | N 1.71 | D 1.77 | C 1.35 | F 1.5 | E 1.86 | L 1.51 | S 1.6 | H 1.64 | V 1.85 | P 2.05 | T 2.09 | A 2.5 | W 1.63 | K 1.86 | I 1.75
K16: N 1.68 | S 2.59 | E 2.08 | Q 2.48 | W 3.04 | H 2.3 | F 2.13 | V 1.76 | I 1.78 | D 2.05 | T 1.28 | A 1.7 | C 1 | M 1.59 | R 2.07 | P 1.5 | G 1.51
K17: S 1.81 | T 1.6 | I 1.75 | F 2.17 | A 1.59 | Y 1.34 | G 1.26 | H 1.61 | V 2.07 | M 2.46 | E 2.14 | Q 1.85 | L 1.73 | C 2.17 | R 1.33 | D 1.65 | N 2.06 | W 1.84
L9: Y 1.68 | N 2.86 | T 2.06 | R 1.8 | P 2.26 | V 2.47 | Q 2.73 | W 1.47 | S 1.74
A20: C 2.08 | W 1.47 | I 2.09 | N 1.7 | M 1.38 | P 1.08 | V 1.97 | R 1.68 | K 1.85 | L 1.39 | E 2.67 | F 1.39 | G 1.75 | S 2.3 | Q 1.78 | D 2.48 | Y 1.71 | T 2.06 | H 2.64
L21: N 1.81 | H 2.79 | P 3.09 | C 1.82 | V 1.91 | Q 2.21 | I 1.36 | G 2.05 | D 2.52 | W 2.22 | S 2.36 | T 1.94 | R 1.39 | Y 1.97 | E 2.88 | F 1.73 | A 2.01 | M 1.7 | K 2.38
R18: V 1.82 | C 2.32 | Q 1.46 | S 2.04 | P 1.56 | A 1.74 | T 1.57 | G 1.24 | D 2.27 | M 2.98 | F 1.75 | L 1.87 | Y 2.2 | I 3.16 | N 2.31 | W 2.33 | H 2.39
Y22: C 2.13 | E 2.6 | K 2.88 | V 2.08 | M 2.95 | F 1.79 | N 3.26 | S 1.68 | Q 2.06 | H 1.84 | W 1.56 | I 1.94 | P 2.29 | R 1.99 | L 1.47 | G 1.43 | D 2.21 | T 1.76
E11: M 2.49 | S 2.25 | R 1.37 | T 2.43 | P 2.62 | L 3.14 | Q 2.51 | D 2.36 | Y 2.56 | F 2.92 | H 2.25 | N 2.04 | A 1.14 | K 2.1 | C 3.07 | V 1.96

Variants of: B2
Experiment: as above
Conditions: c terminus: a fixed tail appended

Protein stability index: each site, then its substitutions
R3: G 5.02 | Q 4.99 | K 5.03 | C 4.74 | I 4.36 | L 4.3 | E 5.08 | M 4.41 | H 4.3 | A 5.01 | D 4.56 | F 4.34 | P 5.54 | N 4.69
L1: H 5.28 | A 5.29 | T 5.33 | D 5.28 | G 5.13 | S 5.66 | Y 4.28 | E 5.22 | I 4.9 | P 5.18 | V 4.98 | N 4.89 | M 4.75 | F 4.4 | W 4.58 | K 4.56 | C 5.39 | R 5.14 | Q 4.51
A2: D 4.41 | L 3.84 | Q 5.01 | W 3.61 | M 4.19 | I 4.62 | H 4.76 | V 3.51 | K 4.42 | P 4.84 | C 4.49 | R 5.33 | E 4.71 | T 4.28 | F 3.4 | N 4.9 | Y 4.32 | S 4.83 | G 4.78
